The source of these data is article PMC4335073.

This assay deals with Ross River virus (RRV), WT T48 strain, UV-inactivated virus coated on plates (Ross River virus, strain T48).

Substance “recombinant human PTX3 N-terminal fragment (domain or fragment)” displayed an RRV entry into HEK 293T cells at 0 and 6 hpi (flow cytometry with anti-alphavirus antibody), RRV pre-incubated with the PTX3 fragment, compared with full-length rhPTX3 (% less efficient than full-length rhPTX3) of 30.
